Test results from publication PMC3045457, “Evolution of Acetylcholinesterase and Butyrylcholinesterase in the Vertebrates: An Atypical Butyrylcholinesterase from the Medaka Oryzias latipes” (PLoS ONE, 2011).
Counter-ions that a name gives are not always drawn. Like-named read-outs stand apart in the source and are kept apart here.

What was measured:
[1] = molecular target: T1, atypical BChE from O. latipes (Oryzias latipes, UniProt D5L5S0); experiment: Ellman assay, COS-7 extract, three-parameter logistic fit; type: biochemical
T1 construct: GPI-anchored amphiphilic dimer (G2a)
T1 sequence (D5L5S0 26-589): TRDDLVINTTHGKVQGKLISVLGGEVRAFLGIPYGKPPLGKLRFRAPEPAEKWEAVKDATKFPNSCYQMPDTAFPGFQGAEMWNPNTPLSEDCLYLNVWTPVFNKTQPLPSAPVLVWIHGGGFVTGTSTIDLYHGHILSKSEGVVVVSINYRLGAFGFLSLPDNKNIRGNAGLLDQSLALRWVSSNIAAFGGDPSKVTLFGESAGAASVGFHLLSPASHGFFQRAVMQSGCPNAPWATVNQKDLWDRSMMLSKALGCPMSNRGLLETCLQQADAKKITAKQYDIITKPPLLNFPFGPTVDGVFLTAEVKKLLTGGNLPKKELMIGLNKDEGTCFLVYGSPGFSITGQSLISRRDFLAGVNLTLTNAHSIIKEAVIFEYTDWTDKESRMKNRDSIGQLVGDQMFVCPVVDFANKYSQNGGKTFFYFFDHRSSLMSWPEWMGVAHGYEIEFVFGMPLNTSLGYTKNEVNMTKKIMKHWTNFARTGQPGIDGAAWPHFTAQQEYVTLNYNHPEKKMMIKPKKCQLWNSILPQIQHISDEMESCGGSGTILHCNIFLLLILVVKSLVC
From the text: Ellman assay, COS-7 extract, three-parameter logistic fit on atypical BChE from O. latipes

[2] = substrate: CC(=O)SCC[N+](C)(C)C; experiment: Ellman assay, COS-7 extract, fit with substrate inhibition (Km, Kss, b); type: biochemical, Oryzias latipes; details: 100 mM NaHPO4 pH 7, 0.3 mM DTNB, 167 mM NaCl, 258 µM Triton X-100
From the text: (§1) Ellman assay, COS-7 extract, fit with substrate inhibition (Km, Kss, b) on atypical BChE from O. latipes

[3] = substrate: CCC(=O)SCC[N+](C)(C)C; experiment: as above; type: biochemical, Oryzias latipes; details: 100 mM NaHPO4 pH 7, 0.3 mM DTNB, 167 mM NaCl, 258 µM Triton X-100
From the text: as §1

[4] = substrate: CCCC(=O)SCC[N+](C)(C)C; experiment: as above; type: biochemical, Oryzias latipes; details: 100 mM NaHPO4 pH 7, 0.3 mM DTNB, 167 mM NaCl, 258 µM Triton X-100
From the text: as §1

CCN(CC)C(C)CN1c2ccccc2Sc2ccccc21 (stereo not shown) [ethopropazine, 10-(2-diethylaminopropyl) phenothiazine hydrochloride]
IC50 ([1]; read-out: IC50 M): 0.898 µM

C=CC[N+](C)(C)c1ccc(CCC(=O)CCc2ccc([N+](C)(C)CC=C)cc2)cc1 [BW284c51, [4-[5-[4-(dimethyl-prop-2-enyl-ammonio)phenyl]-3-oxo-pentyl]phenyl]-dimethyl-prop-2-enyl-azanium dibromide]
IC50 ([1]; read-out: IC50 M): 480 µM

CC(C)NP(=O)(NC(C)C)OP(=O)(NC(C)C)NC(C)C [iso-OMPA, N-[bis(propan-2-ylamino)phosphoryloxy-(propan-2-ylamino)phosphoryl]propan-2-amine]
IC50 ([1]; read-out: IC50 M): 4580 µM

CNC(=O)Oc1ccc2c(c1)[C@]1(C)CCN(C)[C@@H]1N2C [physostigmine, (3aS-cis)-1,2,3,3a,8,8a-hexahydro-1,3a,8-trimethylpyrrolo[2,3-b]indol-5-ol methylcarbamate]
IC50 [1]: 0.0585 µM

B1: atypical BChE from O. latipes (Oryzias latipes) (protein)
chain: T1 sequence (D5L5S0 26-589)
notes: GPI-anchored amphiphilic dimer (G2a)
Km [2]: 270 ± 18 µM
kcat [2]: 460 ± 18.3 s⁻¹
kcat/Km [2]: 1.72e+06 ± 83300 M⁻¹ s⁻¹
Km [3]: 156 ± 15 µM
kcat [3]: 512 ± 40 s⁻¹
kcat/Km [3]: 3.33e+06 ± 83300 M⁻¹ s⁻¹
Km [4]: 72 ± 6 µM
kcat [4]: 117 ± 5 s⁻¹
kcat/Km [4]: 1.65e+06 ± 117000 M⁻¹ s⁻¹
